Data on three molecules can be found in patent US20230062712A1 (SILVERBACK THERAPEUTICS, published 2023).

For one test, the target named is T1, rat ASGR1 on CHO-S cells (rat, UniProt P02706 1-284).
T1 construct: whole, on cells
T1 sequence (looked up): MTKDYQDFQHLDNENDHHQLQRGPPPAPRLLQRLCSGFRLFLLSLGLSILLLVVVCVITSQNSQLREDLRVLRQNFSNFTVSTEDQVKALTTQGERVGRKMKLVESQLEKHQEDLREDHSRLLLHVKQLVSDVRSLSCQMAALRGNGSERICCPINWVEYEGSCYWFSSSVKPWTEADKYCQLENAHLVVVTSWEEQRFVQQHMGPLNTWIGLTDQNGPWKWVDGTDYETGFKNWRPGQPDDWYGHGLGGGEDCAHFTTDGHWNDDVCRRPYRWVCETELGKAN
Put plainly: flow cytometry (Guava) on CHO-S cells transfected with rat ASGR1. As to the method: Anti-human ASGR1 antibodies of this disclosure were examined for cross-reactivity with Cynomolgus macaque and rat ASGR1. Briefly, sequence encoding Cynomolgus macaque or rat ASGR1 was transiently transfected into CHO-S cells. Transfected cells were before performing cell binding assay. A total of about 1.5×10⁴ transfected cells/well were added to 96-well V-bottom assay plate, incubated at 37° C., 5% CO2 for 48-72 hours, and then washed with culture medium before adding 100 μl of each ASGR1 antibody at different concentrations starting from 100 nM and 3-fold dilutions to a total of eight wells. The cells with antibody were incubated for 40 minutes at 4° C., then washed three times with 200 μl of fresh culture medium. To each well was added 50 μl PE conjugated goat anti-human Fc (SouthernBiotech) at 1:200 dilution in culture medium and then incubated at 4° C. for 20 minutes. After washing the plate once, the treated cells were resuspended in 200 μl culture medium and then the stained cells were analyzed on GUAVA® using Incyte software.
For orientation: A flow cytometer gives signals particle by particle.

The target in test [1] is T2, His-tagged rat C-type lectin domain family 10 member A (CLEC10A) extracellular domain (rat) (UniProt P49301).
T2 sequence (looked up): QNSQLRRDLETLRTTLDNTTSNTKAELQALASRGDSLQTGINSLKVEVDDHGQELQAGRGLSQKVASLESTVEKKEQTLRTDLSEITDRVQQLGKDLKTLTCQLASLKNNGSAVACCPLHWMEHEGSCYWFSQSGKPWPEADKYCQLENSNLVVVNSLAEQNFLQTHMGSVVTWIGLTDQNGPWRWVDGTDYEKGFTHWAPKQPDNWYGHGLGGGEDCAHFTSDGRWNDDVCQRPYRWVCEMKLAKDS
Put plainly: Octet, biotinylated mAb on streptavidin sensors, monomeric rat CLEC10A ECD from 200 nM in 3x dilutions, bivalent binding model. In general terms: BLI is a label-free optical method that tracks binding on a fibre tip over time.

Test [2] has as its target T2, His-tagged rat C-type lectin domain family 10 member A (CLEC10A) extracellular domain (rat). The test is described as follows: Octet, His-tagged rat CLEC10A ECD on Penta-His sensors, antibody at 25 µg/mL.

B1: hzL4L-7 (antibody, V domains shown)
VH: QVQLQESGPGLVKPSQTLSLTCTVSGYSISSDYAWNWIRQHPGKGLEWIGYISYSGSTRYNPSLKSRVTITRDTSKNQFSLKLSSVTAADTAVYYCARRYRYDEGYGMDYWGQGTTVTVSS
VL: DIQMTQSPSSLSASVGDRVTITCRASENIYSNLAWYQQKPGKAPKLLIYAATNLADGVPSRFSGSGSGTDFTLTISSLQPEDFATYYCQHFWGTPPWTFGGGTKVEIK
notes: IgG1 and kappa constant regions
As for B1, in the test with rat ASGR1 on CHO-S cells, the binding result is “no binding (tested: starting from 100 nM)”.

B2: hzH8K-1 (antibody, V domains shown)
VH: QVQLQESGPGLVKPSQTLSLTCTVSGGSISSDYAWNWIRQHPGKGLEWIGYRSYRGSTSYNPSLKSRVTISVDTSKNQFSLKLSSVTAADTAVYYCARRGYYGSSSHWYFDVWGQGTTVTVSS
VL: DIQMTQSPSSLSASVGDRVTITCRASENIYSYLAWYQQKPGKAPKLLIYNAKTLAEGVPSRFSGSGSGTDFTLTISSLQPEDFATYYCQHHYGTPLTFGGGTKVEIK
notes: as for B1
Take B2: in the test with rat ASGR1 on CHO-S cells, the binding result was “no binding (tested: starting from 100 nM)”.

B3: ASGR1 mAb-B (antibody, from another filing, V domains shown)
VH: EVQLVESGGGLVKPGGSLRLSCAASGFTFSSYSMNWVRQAPGKGLEWVSSISGSSSYIYYADSVKGRFTISRDNAKNSLYLQMNSLRAEDTAVYFCARGGSRGFDPWGQGTLVTVSS
VL: DIQMTQSPSSLSASVGDRVTITCRASQSITSYLNWYQQKPGKAPKLLIYTASSLQSGVPSRFSGSGSGTDFTLTISSLQPEDFATYYCQQSHSFPFTFGPGTKVDIK
The molecule B3 had a Kd in test [1] of 28.1 nM. Besides, the Response (nm) in test [2] is 0.598 nm.
